Where a chain is given by its changes, count along the chain named.
B1: H1M3549N (antibody, V domains shown)
VH: EVQLVESGGGLVQPGRSLRLSCVASGFPFADYTMHWVRQAPGKGLEWVSDISWNSGSIGYADSVKGRFTISRDNAKNSLYLQMNSLRTEDTALYYCAKDMSGYAHYFYYGMDVWGQGTTVTVSS
VL: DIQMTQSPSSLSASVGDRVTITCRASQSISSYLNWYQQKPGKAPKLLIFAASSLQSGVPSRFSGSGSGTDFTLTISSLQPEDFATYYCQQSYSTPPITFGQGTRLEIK
notes: Hybridoma antibody, human variable regions, mouse IgG1 Fc
B2: H1M3613N (antibody, V domains shown)
VH: B1 VH with R19K, V23T, P28T, A40G, I58K, F107Y, G110A, M111L
VL: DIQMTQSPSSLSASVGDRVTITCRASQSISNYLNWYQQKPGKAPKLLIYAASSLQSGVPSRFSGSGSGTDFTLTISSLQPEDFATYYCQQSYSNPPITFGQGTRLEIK
notes: as for B1
B3: H2M3543N (antibody, V domains shown)
VH: B1 VH with V23A, P28T, A30D, I70V, T88G, F107G
VL: DIQMTQSPSSLSASVGDRVTITCRASQSIRNYLNWYQQKPGKVPKLLIYAASSLQSGVPSRFSGSGSGTDFTLTISSLQPEDFATYYCQQSYSNPPITFGQGTRLEIK
notes: Hybridoma antibody, human variable regions, mouse IgG2 Fc
B4: H2M3541N (antibody, V domains shown)
VH: B1 VH with Q13R, V23A, P28T, A30D, S57T, T88P, F107Y
VL: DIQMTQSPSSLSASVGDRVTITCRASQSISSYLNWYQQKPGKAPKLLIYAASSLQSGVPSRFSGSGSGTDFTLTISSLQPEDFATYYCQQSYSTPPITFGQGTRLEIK
notes: as for B3
B5: H1M3542N (antibody, V domains shown)
VH: B1 VH with I58K, L93F
VL: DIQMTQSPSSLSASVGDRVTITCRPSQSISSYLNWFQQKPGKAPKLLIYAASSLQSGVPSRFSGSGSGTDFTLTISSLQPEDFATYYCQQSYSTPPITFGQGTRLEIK
notes: as for B1
B6: H2M3540N (antibody, V domains shown)
VH: QVHLEESGGGVVQPGRSLRLSCSASGFTFSSYAMHWVRQAPGKGLEWVAVIWYDGTNKYYLDSVKGRFTISRDNSKNTLFLQMNSLRAEDTAVYYCARDRGSIITHWGQGTLVTVSS
VL: B3 VL with V15I, S28N, R30S, N31S, V43A, S91T, N94T
notes: as for B3
B7: H2M3563N (antibody, V domains shown)
VH: B1 VH with Q3H, V23A, P28T, A30D, I70V, T88G, A104G, F107G, Y108K
VL: B3 VL with N31S, S76N, E81D, S91T
notes: as for B3
B8: H2M3548N (antibody, V domains shown)
VH: EVQLVESGGGLVQPGRSLRLSCAASGFKFADYAMHWVRQAPGKGLEWVSEISWNSGSIGYVDSVKGRFTISRDNAKNSLYLQMNSLRAEDTALYYCVKDKSGYGHYYIGMDVWGQGTTVIVSS
VL: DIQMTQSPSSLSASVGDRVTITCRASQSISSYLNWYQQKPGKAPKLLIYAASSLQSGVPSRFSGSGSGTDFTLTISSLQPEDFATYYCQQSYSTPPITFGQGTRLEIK
notes: as for B3
B9: H2M3547N (antibody, V domains shown)
VH: EAQLVESGGGLVQPGRSLRLSCTTSGFTFDDYTMHWVRQAPGKGLEWISDISWNGGTKGYADSVKGRFTISRDNAKNSLYLQMDSLRGEDTALYYCVKDKSGYGHFYFGLDVWGQGTTVTVSS
VL: B3 VL with S12T, I21F, R30S, N31R, Y32H, N34S, V43A, Q55E, Q79H
notes: as for B3
B10: H2M2779N (antibody, V domains shown)
VH: EVQLVESGGGLVQPGGSLRLSCAATGFTFDDFTMHWVRQAPGKGLEWVSGISWNSGSIGYVDSVKGRFTISRDNAKNSLYLQMNSLRAEDTALYYCAKDNSGYGYYYYGMDVWGQGTTVTVSS
VL: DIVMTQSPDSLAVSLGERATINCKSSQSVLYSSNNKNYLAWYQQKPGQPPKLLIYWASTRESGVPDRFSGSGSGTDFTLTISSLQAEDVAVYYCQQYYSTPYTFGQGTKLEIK
notes: as for B3
B11: H2M2778N (antibody, V domains shown)
VH: EVQLVESGGGLVQPGRSLRLSCAASGFTFDDYSMHWVRQAPGKGLEWVSGISWNSRSIDYADSVKGRFTISRDNAKNSLYLQMNSLRAEDTALYYCVKDNSGYGRYYYYGMDVWGQGTTVSVSS
VL: KIVMTQSPATLSVSPGERATLSCRASQSVSGNLAWYQQKPGQAPRLLIYGASTRATSIPARFSGSGSGTEFTLTISSLQSEDFAVYFCQHYYNWPLTFGGGTKVEIR
notes: as for B3
B12: H1M3544N (antibody, V domains shown)
VH: EVQLVESGGGLVQPGRSLRLSCAASGFTFDDYTMHWVRQVPGKGLEWVSGISWNSGSLAYADSVKGRFTISRDNAKNSLYLQMNSLHPEDTALYYCVKDGSGYGHYSYYGLDVWGQGTTVTVSS
VL: not shown
notes: as for B1
B13: H1H5752P (antibody, human IgG1, V domains shown)
VH: QVQLVESGGGVVQPGRSLRPSCAASGFSFRDYGMHWVRQAPGKGLEWMAHIWYNGKNKYYADSVKGRFTISRDNSKNTLYLQMNSLRPEDTAVYYCARDGVSARGTPFDYWGQGTLVTVSS
VL: ETTLTQSPAFMSAAPGDKVSISCIASQYIDDDVNWYQQKPGETAIFIIQEASTLVPGISPRFSGSGYGTHFTLTINNIDSEDAAFYFCLQHDNFPYTFGQGTKLEIK
notes: H1H: human IgG1 Fc; divalent
B14: H1H5782P (antibody, human IgG1, V domains shown)
VH: EVQLVESGGGLVQPGRSLRLSCAASGFTFDDYAMHWVRQAPGKGLEWVSGISWNSGSKDYADSVKGRFTISRDNTRNSLFLQMNSLRTEDTALYYCAKDKSGYGSFYYGMDVWGQGTTVTVSS
VL: not shown
notes: H1H: human IgG1 Fc; divalent
B15: H2M2710N (antibody, V domains shown)
VH: QVQLVESGGGVVQPGRSLRLSCAASGFTFRSFGMHWVRQAPGRGLEWVAMIYFDGKNKYYADSVRGRFTISRDNSKNTLYLEMSSLRAEDTAVYFCARGPGYNWLDPWGQGTLVTVSS
VL: EIVMTQSPATLSVSPGERATLSCRASQSVSRNLAWYQQKPGQAPRLLIYGASTRATGVPARFSGSGSGTEFTLTISSLQSEDFAVFHCQQYNNRPLTFGGGTEVEIK
notes: as for B3
B16: H2M2862N (antibody, V domains shown)
VH: B15 VH with F32Y, R43K, F53Y, K56N, Y59K, E82Q, S84N, A88V
VL: B15 VL with G57D, V58I, T72I, T74N, V85L, F86Y, H87Y, N92S, R94W
notes: as for B3
B17: H2M2777N (antibody, V domains shown)
VH: B15 VH with A23I, F32Y, R43K, F53Y, K56N, E82Q, S84N, E89D
VL: B15 VL with R31S, V58I, F86Y, H87Y, E103K
notes: as for B3
B18: H1M2712N (antibody, V domains shown)
VH: B10 VH
VL: B15 VL with Q27H, L33S, V58I, V85I, F86Y, H87Y, R94W, E103K
notes: Mouse IgG1 Fc form
B19: H2M2775N (antibody, V domains shown)
VH: B15 VH
VL: B15 VL with A19V, T20I, V29I, S52T, H87Y
notes: as for B3
B20: H2M2711N (antibody, V domains shown)
VH: B15 VH
VL: B15 VL
notes: as for B3
B21: H2M2886N (antibody, V domains shown)
VH: B15 VH
VL: B15 VL with A19V, T20I, V29I, S52T, H87Y
notes: as for B3
B22: H2M2885N (antibody, V domains shown)
VH: B15 VH
VL: B15 VL with A19V, T20I, V29I, S52T, H87Y
notes: as for B3

Experiments:
[1] = biological target: T1, Soluble heterodimeric CD3 protein (hCD3-epsilon/hCD3-delta) with a human Fc tag (hFcΔAdp/hFc) or a mouse Fc … (human, UniProt P07766 23-126; P04234 22-105); test: SPR Biacore, 25 C, antibody-capture format
T1 construct: also called hCD3ε/δ; not shown: Fc tag: human (hFcΔAdp/hFc); which tag was used in Ta
Description: (§1) Measurements were conducted on a T200 Biacore™ instrument.
(§2) Soluble heterodimeric CD3 protein (hCD3-epsilon/hCD3-delta; SEQ ID NOs:1652/1653) with either a human Fc tag (hFcΔAdp/hFc; SEQ ID NOs:1683/1684) or a mouse Fc tag (mFcΔAdp/mFc; SEQ ID NOs:1685/1686) was injected over the antibody captured surface and the binding response was recorded. Heterodimeric CD3 protein was purified using the method described in Davis et al. (US2010/0331527).
(§3) Kinetic association (kₐ) and dissociation (kd) rate constants were determined by processing and fitting the data to a 1:1 binding model using Scrubber 2.0 curve fitting software. Binding dissociation equilibrium constants (KD) and dissociative half-lives (t₁₁₂) were calculated from the kinetic rate constants as: KD (M)=kd/kₐ; and t_{1/2} (min)=(ln 2/(60*kd). NT=not tested; NB=no binding observed.

[2] = biological target: T2, Soluble heterodimeric CD3 protein (hCD3-epsilon/hCD3-delta) with either a human Fc tag (hFcΔAdp/hFc) or a … (human, UniProt P07766 23-126; P04234 22-105); test: SPR Biacore 25C antibody-capture
T2 construct: also called hCD3ε/δ; not shown: Fc tag: human (hFcΔAdp/hFc)
Description: as §1, §2, §3

T1 sequence (P07766 23-126 limits assumed, stated change not applied, chain 1 of 2): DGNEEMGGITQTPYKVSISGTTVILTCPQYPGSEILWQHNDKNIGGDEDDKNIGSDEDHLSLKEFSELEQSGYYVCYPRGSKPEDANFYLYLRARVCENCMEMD
T1 sequence (P04234 22-105 limits assumed, stated change not applied, chain 2 of 2): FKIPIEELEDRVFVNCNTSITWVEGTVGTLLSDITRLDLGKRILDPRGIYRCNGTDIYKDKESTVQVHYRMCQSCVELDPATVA
T2 sequence (P07766 23-126 limits assumed, stated change not applied, chain 1 of 2): as the sequence (P07766 23-126 limits assumed, stated change not applied, chain 1 of 2) above
T2 sequence (P04234 22-105 limits assumed, stated change not applied, chain 2 of 2): as the sequence (P04234 22-105 limits assumed, stated change not applied, chain 2 of 2) above

Binder	Kd [1] [nM]	T½ [1] [min]	koff [1] [s⁻¹]	kon [1] [M⁻¹ s⁻¹]	binding result [2]
B1	77.6	13	0.000919	11800	–
B2	15.7	38	0.000304	19300	–
B3	30	51	0.000226	7530	–
B4	189	9	0.00135	7100	–
B5	21.4	23	0.000508	23700	–
B6	16.2	19	0.000611	37700	–
B7	3.66	97	0.000119	32400	–
B8	130	2	0.00504	38700	–
B9	15.9	33	0.000347	21800	–
B10	10.5	51	0.000228	21800	–
B11	8.9	61	0.000189	21300	–
B12	–	82	–	–	–
B13	–	–	–	–	no binding
B14	–	–	–	–	no binding
B15	11.2	15	0.000753	67200	–
B16	80.7	4	0.003	37200	–
B17	43.9	7	0.00163	37000	–
B18	23.5	53	0.000219	9320	–
B19	8.98	18	0.000626	69700	–
B20	11.4	15	0.000767	67200	–
B21	8.96	18	0.000653	72900	–
B22	9.54	18	0.000651	68200	–

Reference: US20190127480A1 (Regeneron, published 2019)
